Assay [1] has as its target α-synuclein (α-syn) (UniProt P37840). As to the kind of experiment: ThT fluorescence of ONE-induced self-aggregation. The following applies: reference: α-syn not treated with PLK3; sites S129.
Assay [2] shares this target. Description: ThT fluorescence of agitation-induced self-aggregation. The following applies: reference: α-syn not treated with PLK3; sites S129.

This is an account of results in paper PMC11082957.

Take “α-synuclein (α-syn) (from UniProt P37840) PLK3-phosphorylated α-syn (p-α-syn)”: the fold change result with α-synuclein (α-syn) [1] and with α-synuclein (α-syn) [2] was “stronger; reference 1” throughout.
